B1: Pistol ribozyme (parent)
chain: GGGUCGUUGUUCCAUAAUCGCGUGGAUAUGGCACGCAAGUUUCUACCGGGCACCGUAAAUGUCCGACUGGAGCCGUUCGGGCGGCUAUAAACAGACCUCAGGCCCGAAGCGUGGCGGCACCUGCCGCCGGUGGUAAAAAAGAUCGGAAGAGCACACGUCU

Variants of: B1
Assay: aptazyme ON/OFF ratio, guanine; higher = stronger switching; co-transcriptional cleavage with and without guanine

Variant | aptazyme ON/OFF ratio
U8A G9A U10A U11C C12G C13U | 1.25
U7G U11C C12A C13A | 1.12
U7G U11C C12A C13U | 1.22
U7G U11C C12A C13G | 1.1
U8A G9A U10G U11C C12U | 1.07
U8A G9A U10G U11C C12G | 1.2
U8A G9A U10G U11C C12A | 1.15
U8A G9A U10A U11G C12U C13U | 1.4
U8A G9A U10A U11G C12U C13G | 1.18
U8A G9A U10A U11G C12U C13A | 1.3
U7G U10G U11G C12G C13G | 1.11
U7G U10G U11G C12G C13A | 1.1
U7G U10G U11G C12G C13U | 1.29
U8A G9A U10G C12G C13G | 1.1
U8A G9A U10G C12G C13U | 1.26
U8A G9A U10G C12G C13A | 1.14
U8A G9A U10A U11C C12U C13A | 1.14
U8A G9A U10A U11C C12U C13G | 1.17
U8A G9A U10A U11C C12U C13U | 1.15
U8A G9A U11A C13U | 1.16
U8A G9A U11A C13A | 1.26
U8A G9A U11A C13G | 1.03
U7G U11A C12U C13G | 1.14
U7G U11A C12U C13U | 1.28

Variant | aptazyme ON/OFF ratio
U7G U11A C12U C13A | 1.19
U8A G9A U10C C12U | 1.24
U8A G9A U10C C12A | 1.15
U8A G9A U10C C12G | 1.18
U8A G9A U10C U11C C12U C13U | 1.05
U8A G9A U10C U11C C12U C13G | 1.05
U8A G9A U10C U11C C12U C13A | 1.04
U7G U11A | 2.37
U7G U11G | 1.32
U7G U11C | 1.11
U8A G9A C12G C13A | 1.36
U8A G9A C12G C13U | 1.18
U8A G9A C12G C13G | 1.2
U8A G9A U10A U11C C12A C13A | 1.19
U8A G9A U10A U11C C12A C13G | 1.16
U8A G9A U10A U11C C12A C13U | 1.25
U8A G9A U10C C12U C13U | 1.2
U8A G9A U10C C12U C13A | 1.17
U8A G9A U10C C12U C13G | 1.26
U8A G9A U10A C12G C13U | 1.42
U8A G9A U10A C12G C13G | 1.28
U8A G9A U10A C12G C13A | 1.25
U7G U11G C12U | 1.2
U7G U11G C12G | 1.23

Variant | aptazyme ON/OFF ratio
U7G U11G C12A | 1.11
U8A G9A U10A U11A C12G C13G | 1.18
U8A G9A U10A U11A C12G C13A | 1.29
U8A G9A U10A U11A C12G C13U | 1.16
U8A G9A U10A U11C C13U | 1.05
U8A G9A U10A U11C C13A | 1.04
U8A G9A U10A U11C C13G | 1.04
U8A G9A U10A U11G C13A | 1.12
U8A G9A U10A U11G C13U | 1.18
U8A G9A U10A U11G C13G | 1.08
U8A G9A U10A U11G C12A C13A | 1.03
U8A G9A U10A U11G C12A C13U | 1.11
U8A G9A U10A U11G C12A C13G | 1.18
U7G U11A C12A | 1.16
U7G U11A C12U | 1.68
U7G U11A C12G | 1.18
U8A G9A U11C C12U | 1.09
U8A G9A U11C C12G | 1.17
U8A G9A U11C C12A | 1.16
U8A G9A U10C U11C C13A | 1.03
U8A G9A U10C U11C C13U | 1.05
U8A G9A U10C U11C C13G | 1.03
U8A G9A U11C C12U C13G | 1.2
U8A G9A U11C C12U C13A | 1.23

Variant | aptazyme ON/OFF ratio
U8A G9A U11C C12U C13U | 1.21
U8A G9A U11A C12G C13G | 1.2
U8A G9A U11A C12G C13U | 1.04
U8A G9A U11A C12G C13A | 1.11
U8A G9A U10A U11A C13G | 1.06
U8A G9A U10A U11A C13U | 1.09
U8A G9A U10A U11A C13A | 1.27
U7G U10G U11C C12U C13U | 1.25
U7G U10G U11C C12U C13G | 1.3
U7G U10G U11C C12U C13A | 1.08
U7G U10G U11C C12A | 1.25
U7G U10G U11C C12U | 1.17
U7G U10G U11C C12G | 1.25
U8A G9A U11A C12U C13A | 1.39
U8A G9A U11A C12U C13U | 1.29
U8A G9A U11A C12U C13G | 1.18
U8A G9A U10A U11C C12U | 1.08
U8A G9A U10A U11C C12A | 1.09
U8A G9A U10A U11C C12G | 1.13
U7G U10G U11G C12U C13U | 1.36
U7G U10G U11G C12U C13A | 1.13
U7G U10G U11G C12U C13G | 1.17
U8A | 2.82
U7G U10G U11G C12A C13U | 1.13

Variant | aptazyme ON/OFF ratio
U7G U10G U11G C12A C13G | 1.1
U7G U10G U11G C12A C13A | 1.08
U8A G9A | 1.91
U8A G9A U10C C12A C13A | 1.19
U8A G9A U10C C12A C13G | 1.13
U8A G9A U10C C12A C13U | 1.18
U8A G9A U10G U11A C13A | 1.03
U8A G9A U10G U11A C13U | 1.06
U8A G9A U10G U11A C13G | 1.02
U8A G9A U11A C12G | 1.31
U8A G9A U11A C12A | 1.08
U8A G9A U11A C12U | 1.05
U8A G9A U10G U11C C13U | 1.04
U8A G9A U10G U11C C13A | 1.07
U8A G9A U10G U11C C13G | 1.05
U8A G9A U10A C13A | 1.26
U8A G9A U10A C13U | 1.2
U8A G9A U10A C13G | 1.1
U7G U10G U11C | 1.07
U7G U10G U11G | 1.53
U8A G9A U10G U11C C12A C13U | 1.16
U8A G9A U10G U11C C12A C13G | 1.08
U8A G9A U10G U11C C12A C13A | 1.12
U8A G9A U10C U11G C12G C13G | 1.24

Variant | aptazyme ON/OFF ratio
U8A G9A U10C U11G C12G C13A | 1.28
U8A G9A U10C U11G C12G C13U | 1.17
U7G U10G U11C C12G C13A | 1.14
U7G U10G U11C C12G C13G | 1.07
U7G U10G U11C C12G C13U | 1.35
U7G U10G U11G C13U | 1.2
U7G U10G U11G C13G | 1.18
U7G U10G U11G C13A | 1.16
U7G U11A C13A | 1.16
U7G U11A C13G | 1.08
U7G U11A C13U | 1.36
U8A C12U C13G | 1.35
U8A C12U C13A | 1.28
U8A C12U C13U | 1.38
U8A G9A U10G C13A | 1.29
U8A G9A U10G C13G | 1.21
U8A G9A U10G C13U | 1.29
U8A G9A U10G U11A | 1.02
U8A G9A U10G U11C | 1.05
U8A G9A U10G U11G | 1.07
U8A G9A U10G U11G C12A C13G | 1.27
U8A G9A U10G U11G C12A C13U | 1.3
U8A G9A U10G U11G C12A C13A | 1.12
U8A G9A U10G U11G C13U | 1.05

Variant | aptazyme ON/OFF ratio
U8A G9A U10G U11G C13A | 1.17
U8A G9A U10G U11G C13G | 1.12
U7G U10G U11C C13A | 1.11
U7G U10G U11C C13G | 1.07
U7G U10G U11C C13U | 1.13
U8A G9A U10A U11A C12A C13A | 1.29
U8A G9A U10A U11A C12A C13G | 1.1
U8A G9A U10A U11A C12A C13U | 1.27
U7G U11C C12U C13A | 1.13
U7G U11C C12U C13U | 1.19
U7G U11C C12U C13G | 1.1
U8A G9A U10G C12U C13G | 1.17
U8A G9A U10G C12U C13U | 1.41
U8A G9A U10G C12U C13A | 1.34
U8A C12A C13U | 1.19
U8A C12A C13A | 1.24
U8A C12A C13G | 1.13
U8A G9A U10C U11G C13G | 1.18
U8A G9A U10C U11G C13A | 1.16
U8A G9A U10C U11G C13U | 1.17
U7G U11G C12U C13G | 1.12
U7G U11G C12U C13A | 1.14
U7G U11G C12U C13U | 1.2
